This note sets out measurements from US5227469A, “Platelet aggregation inhibitors from the leech” (Genentech, Inc., priority 1990, dated 1993).

Like-named read-outs stand apart in the source and are kept apart here. No end group written: not given here.

Series [1] has as its target T1, GP IIb IIIa (Homo sapiens, UniProt P05106+P08514).
T1 construct: GP IIb IIIa was purified from outdated human platelets as previously described; from tissue; host or cells: outdated human platelets
Kind of series: Fg/GP IIb IIIa solid phase ELISA (inhibition of GP IIb IIIa binding to immobilized fibrinogen). Particulars: for half maximal dilution / total units / specific activity (U/mg): Table III; for half maximal dilution: dilution giving half maximal response in ELISA, fractions from 310 g P. ornata; for total units: half maximal dilution multiplied by total volume in ml; for specific activity (U/mg): total units per mg total protein; for activity in GP IIb IIIa /Fg ELISA compared with decorsin purified from whole leech homogenate: specific activity (IC50). The method, then:
The Fg/GP IIb IIIa ELISA was performed by a modification of the method of Nachman and Leung (Nachman, R. L. et al. (1982) J. Clin. Invest. 69, 263-269) according to the following protocol, with washes of phosphate buffered saline containing 0.01% Tween 20 between each step:
Microtiter plates were coated with purified human fibrinogen (10 μg/ml), washed, and then blocked with TACTS, 0.5% BSA. The plates were washed and samples to be evaluated were added, followed immediately by addition of purified GP IIb IIIa (40 μg/ml) in TACTS, 0.5% BSA (Calbiochem). After a 1 hr incubation, the plate was washed and AP3 (1 μg/ml) was added.
Following a 1 hr incubation and another wash, goat anti-mouse IgG conjugated to horseradish peroxidase was added. A final wash was performed, and developing reagent buffer (0.66 mg/ml o-phenylenediamine dihydrochloride, 0.012% H2 O2, 22 mM citrate, 50 mM phosphate, pH 5.0) added; plates were incubated until color developed.
The reaction was stopped with 1N H2 SO4 and the absorbance at 492 nm measured. A four parameter fit (Marquardt, D. W. (1963) J. Soc. Indust. Appl. Math 11, 431-441) was used to estimate the half maximal inhibition concentration.

Series [2] has as its system human platelet rich plasma (PRP). The method, then: The Fg/GP IIb IIIa ELISA was performed as previously described (Dennis, M. S., Henzel, W. J., Pitti, R. M., Lipari, M. T., Napier, M. A., Deisher, T. A., Bunting S. and Lazarus, R. A. (1990) Proc. Natl. Acad. Sci. USA, 87, 2471-2475; and Seymour, J. L., Henzel, W. J., Nevins, B., Stults, J. T., and Lazarus, R. A. (1990) J. Biol. Chem. 265, 10143-10147).Platelet aggregation assays were carried out in human platelet rich plasma (PRP) as reported earlier (Dennis, M. S., Henzel, W. J., Pitti, R. M., Lipari, M. T., Napier, M. A., Deisher, T. A., Bunting, S. and Lazarus, R. A. (1990) Proc. Natl. Acad. Sci. USA, 87, 2471-2475; and Seymour, J. L., Henzel, W. J., nevins, B., Stults, J. T., and Lazarus, R. A. (1990) J. Biol. Chem. 265, 10143-10147).
Platelet aggregation assays were performed in PRP as follows:
50 ml whole human blood (9 parts) was drawn on 3.8% Na citrate (1 part) from a donor who had not taken any aspirin or related medication for at least two weeks. Blood was centrifuged at 160×g for 10 minutes at 22° C., allowed to stand for five minutes, and the PRP was decanted. Platelet poor plasma (PPP) was prepared from the remaining blood by centrifugation at 2000×g for 25 minutes at 22° C. PRP platelet count was measured on a Baker 9000 hematology analyzer and diluted to about 300,000 platelets/μL using PPP.
Light transmittance was recorded after the addition of ADP (8 μM), which initiated platelet aggregation. The inhibition of platelet aggregation was measured at the maximum aggregation response.

The target in series [3] is glycoprotein IIb IIIa (GP IIb IIIa), purified from outdated human platelets (human) (UniProt P08514). Kind of series: Fg/GP IIb IIIa ELISA, dilution of the 0.020 mg/ml fraction giving a half maximal response. A general note: ELISA stands for enzyme-linked immunosorbent assay.
Series [4] has the same target. Kind of series: Fg/GP IIb IIIa ELISA units per mg protein.
Series [5] shares this target. Kind of series: Fg/GP IIb-IIIa solid phase ELISA.
For series [6] the target is unchanged. Kind of series: Fg/GP IIb IIIa ELISA, dilution of the 0.024 mg/ml fraction giving a half maximal response.
In series [7] the target is T1, GP IIb IIIa. Kind of series: Binding to immobilized GP IIb IIIa affinity resin, elution with EDTA. Particulars: eluted by EDTA. As to the method: Immediately before coupling, approximately 10 ml Affi-Prep 10 resin was washed with 300 ml ice cold 50 mM sodium acetate, pH 4.5 in a coarse sintered glass funnel. After removing excess buffer, approximately 4 ml washed resin was transferred to a 15 ml conical tube containing 8 mg purified GP IIb IIIa which had been previously dialyzed into 0.1M sodium bicarbonate, 2 mM CaCl2, pH 8.0.
The coupling was carried out on a rocking platform at room temperature for 2 hours, and then overnight at 4° C. Excess reactive groups on the resin were blocked by incubation with 0.1M ethanolamine, 2 mM CaCl2, pH 9.0 for 1 hour at room temperature. The resin was then transferred to a sintered glass funnel, and washed in an alternating fashion with 20 ml aliquots of 0.1M sodium acetate, pH 4.5, and 0.1M Tris, pH 7.5, each containing 0.5M NaCl and 2 mM CaCl2, to remove any non-covalently bound material. A total of approximately 300 ml of each buffer was used in this cycle washing. Finally, the coupled GP IIb IIIa resin was washed with 100 ml 50 mM Tris, pH 7.5 containing 2 mM CaCl2 and stored at 4° C. prior to use.
The affinity column (ca. 4 ml of resin) was equilibrated in 50 mM Tris, pH 7.5 containing 2 mM CaCl2. The neutralized TFA pool was loaded onto the column at a flow rate of 0.5 ml/min and 25 ml fractions were collected. […]

Series [8] addresses glycoprotein IIb IIIa (GP IIb IIIa), purified from outdated human platelets (human) (UniProt P08514). Kind of series: Fg/GP IIb IIIa ELISA, dilution of the 0.018 mg/ml fraction giving a half maximal response.
The target is the same in series [9]. Kind of series: Fg/GP IIb IIIa ELISA, dilution of the 0.113 mg/ml fraction giving a half maximal response.
The target in series [10] is T2, GP IIb IIIa on human platelets (platelet rich plasma) (human, UniProt P08514). Kind of series: cell-based or functional assay.
Series [11] addresses glycoprotein IIb IIIa (GP IIb IIIa), purified from outdated human platelets (human) (UniProt P08514). Kind of series: Fg/GP IIb IIIa solid phase ELISA, inhibition of GP IIb IIIa binding to immobilized fibrinogen.
The target of series [12] is T2, GP IIb IIIa on human platelets …. Kind of series: cell-based or functional assay. This is another data set of the same source.
[13] abbreviates: Table VI, n in parenthesis, read-out: IC50 (nM) Fg/GP IIb-IIIa solid phase ELISA.
Where [14] appears, read: four parameter fit, read-out: IC50 in GP IIb IIIa /Fg ELISA.

On to “IPQCRDVKESGQPNDKCRCNGKPCTVGKCTIARGDDNDKCT [ornatin A2, ornatin isoform isolated from P. ornata]”, for which, in the series with GP IIb IIIa [1] (FIG. 8 inset, rechromatography of ornatin A), the “activity of C18 rp HPLC peaks in Fg/GP IIb IIIa ELISA” value is “active”. In addition, in the series with GP IIb IIIa [1], the half maximal dilution amounted to 809, the total units was determined as 405 and the “specific activity (U/mg)” value was determined as 44505 U/mg. For the same molecule, in the series with GP IIb IIIa [1] (setting [13]), the IC50 stood at 5.1 nM.
Regarding “N-3 decorsin: isoform which lacks the first three amino terminal residues of decorsin (LPQCQGDDQEKCLCNKDECPPGQCRFPRGDADPYCE)”, the IC50 with GP IIb IIIa [1] (setting [14]) was approximately 1.5 nM. Besides, the “activity in platelet aggregation assay compared with native decorsin” value in [2] was “Comparable activities”.
The molecule ornatin D showed a half maximal dilution in series [3] of 1030. In [4], this molecule showed a specific activity (U/mg) of 49600 U/mg. In series [5], this molecule gave an IC50 of 3.2 nM.
On to kistrin [reference compound], for which the IC50 at GP IIb IIIa [1] (setting [13]) is 4.6 ± 0.06 nM; in series [2] (read-out: IC50 (nM) human platelet aggregation assay, Table VI, ADP activation, n in parenthesis), 137 nM.
Regarding “IYVRPTKDELLYCGEFRELGQPDKKCRCDGKPCTVGRCKFARGDADDKCTSA [ornatin C, ornatin isoform isolated from P. ornata]”, in the series with GP IIb IIIa [1], the half maximal dilution was determined as 4422, the total units stood at 2211 and the “specific activity (U/mg)” value was found to be 39060 U/mg. In addition, in the series with GP IIb IIIa [1] (setting [13]), the IC50 was 4.9 ± 0.5 nM.
For “IYVRPTKDELLYCGEFRELGQPDKKCRCDGKPCTVGRCNFARGDNDDKCI [ornatin E, ornatin isoform isolated from P. ornata]” the same measures were 3610, 1805, 42370 U/mg and 4.5 ± 0.77 nM.
“GRGDV [GRGDV, reference compound] [listing 1 of 2 here]”: the IC50 on GP IIb IIIa [1] (setting [13]) was 47.5 ± 6.4 nM; at GP IIb IIIa [1] (setting [14]), approximately 40 nM.
In [6], ornatin B displayed a half maximal dilution of 1220. This molecule gave a specific activity (U/mg) in series [4] of 50700 U/mg. The same molecule registered an IC50 in series [5] of 3.5 nM.
With “IYVRPTKDELLYCGEFRELGQPDKKCRC [ornatin D, ornatin isoform from P. ornata]”, in the series with GP IIb IIIa [1], the half maximal dilution is given as 1032, the total units amounted to 516 and the “specific activity (U/mg)” value came out at 49615 U/mg. In the series with GP IIb IIIa [1] (setting [13]), the IC50 was found to be 3.2 ± 0.35 nM.
Take “APRLPQCQGDDQEKCLCNKDECPPGQCRFPRGDADPYCE [decorsin]”: the “binding to GP IIb IIIa receptor (words)” value is given as “bound” with GP IIb IIIa [7] and “bind” with GP IIb IIIa [7] (listed as Decorsin). For the same molecule, the IC50 in the series with GP IIb IIIa [1] (setting [14]) was approximately 1.5 nM. The “potency relative to pentapeptide GRGDV in GP IIb IIIa /Fg ELISA” value with GP IIb IIIa [1] (ratio of IC50 values) is listed as “about 27 times”. Moreover, the “activity in GP IIb IIIa /Fg ELISA compared with decorsin purified from whole leech homogenate” value with GP IIb IIIa [1] is given as “identical”; with GP IIb IIIa [1] (listed as synthetic native decorsin), “essentially identical”. Besides, in series [2], the “activity in platelet aggregation assay compared with native decorsin” value was “essentially identical”.
With “IYVRPTNDELNYCGDFRELGQPDKKCRCDGKPCTVGRCKFARGDNDDKCISA [ornatin B, ornatin isoform isolated from P. ornata]”, in the series with GP IIb IIIa [1], the half maximal dilution was 1215, the total units is reported as 608 and the “specific activity (U/mg)” value is 50670 U/mg. For the same molecule, in the series with GP IIb IIIa [1] (setting [13]), the IC50 was determined as 3.5 ± 0.25 nM.
The molecule ornatin A2 gave a half maximal dilution in series [8] of 809. This molecule also registered a specific activity (U/mg) in [4] of 44500 U/mg. Besides, in [5], the IC50 is 5.1 nM.
For “GRGDV [GRGDV, reference compound] [listing 2 of 2 here]”, the IC50 in series [2] (read-out: IC50 in platelet aggregation assay, ADP (8 μM) induced, human PRP) was approximately 75000 nM.
Molecule ornatin C had a half maximal dilution in series [9] of 4420. In series [4], this molecule registered a specific activity (U/mg) of 39100 U/mg. In series [5], this molecule gave an IC50 of 4.9 nM.

B1: GRGDV (peptide)
peptide: GRGDV
Take B1: the “IC50, inhibition of ADP-induced platelet aggregation in human platelet rich plasma” value in series [10] is approximately 75000 nM. Further, the IC50 in series [5] turned out to be 47.5 nM; in series [11], 40 nM.

B2: decorsin (other)
chain: APRLPQCQGDDQEKCLCNKDECPPGQCRFPRGDADPYCE
In the case of B2, in series [12], the “IC50 (nM), human platelet aggregation assay (ADP activation)” value (“IC50 (nM)” for short) is 314 nM. In addition, the “IC50, inhibition of ADP-induced platelet aggregation in human platelet rich plasma” value in series [10] was approximately 300 nM.

B3: ornatin C (other)
chain: IYVRPTKDELLYCGEFRELGQPDKKCRCDGKPCTVGRCKFARGDADDKCTSA
B3: in series [12], the “IC50 (nM)” value came out at 324 nM.

B4: ornatin E (other)
chain: IYVRPTKDELLYCGEFRELGQPDKKCRCDGKPCTVGRCNFARGDNDDKCI
Turning to B4, in series [12], the “IC50 (nM)” value was 516 nM.
